{"source": "the DeepSol protein solubility set", "data": [{"assay": "soluble on expression in E. coli; label from the status in PepcDB or PDB records", "values": [{"sequence": "MGSDKIHHHHHHMDTLIRRYKRLLTATSTTYIRSLMDTINWDNRLIAIRGARGVGKTTLMLQYLKLHYANDSQSALYTSLDSLYFTQHTLSELAEQFYLKGGKCLFLDEVHKYPSWSKEIKNIYDEFPELKIVFTGSSLLQLLNAEADLSRRCISYNMQGLSYREYLKLFHQIHIRPYTLEEILESSDGICNEVNSQCRPLAHFEDYLKHGYYPFYLEGNAEYYTRIENITNLILEIELPQQCGVDISNVRKLKSLLGILSSEVPFMVDITKLSALAELSRTTILAYLQYLDRAKLIHLLYSDNDSIKKLQKPDKIYMENTNLLYALTFKDVNKGTLREVFMVNQLSYLHRVEYCTRSADYTIDSKYTIEVGGKSKDGKQIAGSKKAFIAADDIEYSAGNKIPLWAFGFLY", "soluble on expression in E. coli": "not soluble"}, {"sequence": "MGSDKIHHHHHHMDTQAFKQTLHKSDRYNRRGFGSANKRAQALAEAYQSGLIGSIRENGNLLEHGRLKVKLAEAFGFCWGVERSVAMAYETRKHYPNERIWITNEIIHNPSVNDHLRKMNVLFISEEKGVKDFSVVKDGDVVILPAFGATVQDMKLLHDRGCHIIDTTCPWVSKVWHTVEKHKKHTFTSIIHGKYKHEETLATSSFAGTYLVLFDLEEANYVSDYILGKGNREDFLKRFSKASSAGFDPDKDLQKVGVANQTTMLKSETEEIGRLFEKTMLQRFGPAQLNEHFLAINTICDATEERQGAMFSLVDEPLDLMVVIGGFNSSNTTHLQEIAISRGIRSFHIDTPERIGEETNTITHMPLEGGELLTEENFLQNGNISVGITSGASTPDRVVEDVIHKLMKIGENF", "soluble on expression in E. coli": "not soluble"}, {"sequence": "MGSDKIHHHHHHMDTRIRDFVKTNECYFAVNTYYHPENSVISFLRYINIDKIGNHLLKDYELDENDIRILNGERFIKVADSSKAYAILKEYYPEYLFYDEINDVLLHAVPKTNIKEILSPQKRLEEVLNEQNTEAEIKCAKLADTLHDYGLEYKNMGVSGSTVLKLNNENSDIDFVIYGMEKHKIAREILSVTFKDGVLEPLSEDFWKKAYVKRIKDGTLTYDEFVWHEKRKLNRGVVDGVMFDLLATREWDEITENYGDKKYKNLGFIQIKAKVKDDTFVFDNPAVYKVENVEILNNENNAEVLASEIEEVVSFTHTYAGSTYNGEEIIVRGKLEEVSGKETYKRVVVGTTREAFNEYVKLAK", "soluble on expression in E. coli": "not soluble"}, {"sequence": "MGSDKIHHHHHHMDVIDAVNRRMSVRAFKPDPVDAGLIRDLLEAAARAPSGGNLQPWRVQVVGGAPLEALKAAMLQRVASPDPTEYDVYPANLWEPLRSRRFQVGEDMYGALGIPREDKLQRLQWFANNGQGFGAPVQLFFSIDRRCGPPQWSDVGMLMQTFMLLAVERGLDTCPQEFWSHYNKLVDEHVGLPEGHMLFSGMALGYRDADAPVNNFRSRRAPFEEWAELKGF", "soluble on expression in E. coli": "not soluble"}, {"sequence": "MGSDKIHHHHHHMDVSIDSGKKKIIPFIQSGDYFFRRGVIAFRKNHLSRAVKLLERAVKLTEQEPVFHIQLAAVLSELGHYERSNDILESVVQNLDPGHSECHFFMANNYAYLGLFEKAEHCAIAYLSDQPDGEFAKDAHDLLDLLRFEKEEEGDEWENELTPTDQFLLEHEKACQLLEEGHLQEAIVLLEKLMDEEPSYWTAYNQYAQALFRLGNVEKAFEVCEHILEEDQGNLFALCNMALFYKKQGQQQQAESLIQALSAVHPMDRAHRFKVAQVLCAVGAYEQAYDRLKELEWTSISSDPEWHFCIGVAAYHLGQEEIALRYWKKAATLGVQQAADYYAMSIVDILQKEDVTYEGWHVKQKSRQNS", "soluble on expression in E. coli": "not soluble"}, {"sequence": "MGSDKIHHHHHHMEALLQLKGIDKAFPGVKALSGAALNVYPGRVMALVGENGAGKSTMMKVLTGIYTRDAGTLLWLGKETTFTGPKSSQEAGIGIIHQELNLIPQLTIAENIFLGREFVNRFGKIDWKTMYAEADKLLAKLNLRFKSDKLVGDLSIGDQQMVEIAKVLSFESKVIIMDEPTDALTDTETESLFRVIRELKSQGRGIVYISHRMKEIFEICDDVTVFRDGQFIAEREVASLTEDSLIEMMVGRKLEDQYPHLDKAPGDIRLKVDNLCGPGVNDVSFTLRKGEILGVSGLMGAGRTELMKVLYGALPRTSGYVTLDGHEVVTRSPQDGLANGIVYISEDRKRDGLVLGMSVKENMSLTALRYFSRAGGSLKHADEQQAVSDFIRLFNVKTPSMEQAIGLLSGGNQQKVAIARGLMTRPKVLILDEPTRGVDVGAKKEIYQLINQFKADGLSIILVSSEMPEVLGMSDRIIVMHEGHLSGEFTREQATQEVLMAAAVGKLNRVNQE", "soluble on expression in E. coli": "not soluble"}]}]}
